The values that follow are results of earlier work, collected in US20130064803A1, “BIO-REPLENISHMENT (BioRep) FOR COGNITIVE HEALTH” (Naidu LP, priority 2011, published 2013).

A value given as a limit tells only on which side of the number the result lay.

For this data set the following is noted: intravenous infusion.

B1: LF: 80-kD heparan- and metal-binding glycoprotein, member of the transferrin super-family (protein, UniProt P02788 20-710, looked up)
Lactotransferrin: GRRRSVQWCAVSQPEATKCFQWQRNMRKVRGPPVSCIKRDSPIQCIQAIAENRADAVTLDGGFIYEAGLAPYKLRPVAAEVYGTERQPRTHYYAVAVVKKGGSFQLNELQGLKSCHTGLRRTAGWNVPIGTLRPFLNWTGPPEPIEAAVARFFSASCVPGADKGQFPNLCRLCAGTGENKCAFSSQEPYFSYSGAFKCLRDGAGDVAFIRESTVFEDLSDEAERDEYELLCPDNTRKPVDKFKDCHLARVPSHAVVARSVNGKEDAIWNLLRQAQEKFGKDKSPKFQLFGSPSGQKDLLFKDSAIGFSRVPPRIDSGLYLGSGYFTAIQNLRKSEEEVAARRARVVWCAVGEQELRKCNQWSGLSEGSVTCSSASTTEDCIALVLKGEADAMSLDGGYVYTAGKCGLVPVLAENYKSQQSSDPDPNCVDRPVEGYLAVAVVRRSDTSLTWNSVKGKKSCHTAVDRTAGWNIPMGLLFNQTGSCKFDEYFSQSCAPGSDPRSNLCALCIGDEQGENKCVPNSNERYYGYTGAFRCLAENAGDVAFVKDVTVLQNTDGNNNEAWAKDLKLADFALLCLDGKRKPVTEARSCHLAMAPNHAVVSRMDKVERLKQVLLHQQAKFGRNGSDCPDKFCLFQSETKNLLFNDNTECLARLHGKTTYEKYLGPQYVAGITNLKKCSTSPLLEACEFLRK
On to B1, for which the “time to reach the cerebrospinal fluid” value is at most 30 min.
